Results as given in patent publication US20180258172A1 (ZymoGenetics, published 2018).
One block for each binder: values may come before it.

How the values were obtained:
[1] = target: T1, human zB7H6 (full-length, on cells) (human, UniProt Q68D85 25-454); assay: competition FACS on K562 cells against NKp30/mFc2, 100-fold mass excess
T1 construct: also called hzB7H6; hypothetical protein DKFZP686I21167
T1 sequence: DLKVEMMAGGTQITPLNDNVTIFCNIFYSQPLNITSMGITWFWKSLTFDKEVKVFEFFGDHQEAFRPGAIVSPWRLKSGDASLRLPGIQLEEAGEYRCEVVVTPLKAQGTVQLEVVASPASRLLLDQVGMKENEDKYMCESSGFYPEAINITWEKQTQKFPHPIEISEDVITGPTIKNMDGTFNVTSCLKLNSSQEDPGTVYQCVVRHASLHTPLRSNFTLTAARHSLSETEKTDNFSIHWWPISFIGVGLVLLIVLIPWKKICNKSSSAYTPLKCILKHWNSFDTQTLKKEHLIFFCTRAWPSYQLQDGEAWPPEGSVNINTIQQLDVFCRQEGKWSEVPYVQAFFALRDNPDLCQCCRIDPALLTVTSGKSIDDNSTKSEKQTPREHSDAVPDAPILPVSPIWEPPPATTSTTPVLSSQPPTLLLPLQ
Protocol: K562 cells were probed by FACS with a soluble form of NKp30 (NKp30/mFc2 (SEQ ID NO:8), containing the extracellular domain of NKp30 and a murine Fc fragment). K562 cells were resuspended in PBS/2% FBS at a concentration of 1.6×10⁶ cells/ml (160,000 cells/sample). 100 μl samples were aliquoted and 1 μl of whole human IgG (Jackson #009-000-003) added to each. NKp30/mFc2 probe was added at a concentration of 2 μg/ml together with 10 μg/ml Heparin and 100-fold mass excess of a VASP protein (NKp30/VASP or a control VASP protein, human zB7R1/VASP (SEQ ID NO:12) or B7-DC/VASP (SEQ ID NO:13)). Cells were incubated for 1 hour on ice and washed with 2 ml cold PBS. Washed cells were resuspended in 100 μl of PBS/2% FBS with 1 μl PE anti-mIgG (Jackson 115-116-071) and incubated for 30 minutes on ice. Cells were then washed twice with 2 ml cold PBS, resuspended in 500 μl of PBS, and analyzed for PE staining on a FACSCalibur.

NKp30/mFc2 = target: T2, NKp30/mFc2; assay: competition FACS: soluble zB7H6/VASP at 100-fold mass excess competed NKp30/mFc2-biotin binding to K562, 293F and P815 zB7H6 cells
T2 construct: also called soluble NKp30 fusion protein; NKp30/mFc2-biotin
T2 chain: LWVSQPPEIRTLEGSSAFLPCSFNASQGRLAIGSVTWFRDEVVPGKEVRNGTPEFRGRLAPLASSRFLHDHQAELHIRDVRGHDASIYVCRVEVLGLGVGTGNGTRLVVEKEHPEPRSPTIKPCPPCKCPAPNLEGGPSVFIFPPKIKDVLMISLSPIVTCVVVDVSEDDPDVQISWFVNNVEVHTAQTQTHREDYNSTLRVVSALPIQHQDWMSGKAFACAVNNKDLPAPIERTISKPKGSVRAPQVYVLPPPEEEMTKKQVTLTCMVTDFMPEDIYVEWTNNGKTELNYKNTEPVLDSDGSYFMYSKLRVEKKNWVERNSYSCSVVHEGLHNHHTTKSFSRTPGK
Protocol: Cells were resuspended in PBS/2% FBS at a concentration of 1.5×10⁶ cells/ml (150,000 cells/sample). 100 μl samples were aliquoted with 100 μg/ml of whole human IgG (Jackson #009-000-003) included for Fc receptor blocking. NKp30/mFc2-biotin probe was added at a concentration of 2 μg/ml and 100-fold mass excess of a VASP protein (NKp30/VASP or human zB7H6/VASP) or a control VASP protein (B7H3/VASP). Cells were incubated for 1 hour on ice and washed with 2 ml cold PBS. Washed cells were resuspended in 100 μl of PBS/2% FBS with streptavidin-PE (BD:554061) at 1 μg/ml and incubated for 15 minutes on ice. Cells were then washed with 1 ml cold PBS, resuspended in 250 μl of PBS, and analyzed for PE staining on a FACSCalibur.

binding result [1]: binds
B1: NKp30/VASP (receptor)
chain: LWVSQPPEIRTLEGSSAFLPCSFNASQGRLAIGSVTWFRDEVVPGKEVRNGTPEFRGRLAPLASSRFLHDHQAELHIRDVRGHDASIYVCRVEVLGLGVGTGNGTRLVVEKEHPEPRSGSGGSGGSDLQRVKQELLEEVKKELQKVKEEIIEAFVQELRGSGGHHHHHH
notes: no limits or signal peptide residues stated; also called soluble NKp30/VASP A1683F; NKp30/VASP-A647

binding result (NKp30/mFc2): binds
B2: hzB7H6/VASP-His6 (ligand)
chain: DLKVEMMAGGTQITPLNDNVTIFCNIFYSQPLNITSMGITWFWKSLTFDKEVKVFEFFGDHQEAFRPGAIVSPWRLKSGDASLRLPGIQLEEAGEYRCEVVVTPLKAQGTVQLEVVASPASRLLLDQVGMKENEDKYMCESSGFYPEAINITWEKQTQKFPHPIEISEDVITGPTIKNMDGTFNVTSCLKLNSSQEDPGTVYQCVVRHASLHTPLRSNFTLTAARHSLSETEKTDNFSIHWWPEPRSGSGGSGGSDLQRVKQELLEEVKKELQKVKEEIIEAFVQELRGSGGHHHHHH
notes: also called human zB7H6/VASP; zB7H6 C(VASP)H6
